From patent US10813788B2, “Implantable therapeutic device” (ForSight Vision4, Inc., priority 2009, dated 2020)
Where “and” joins values, the source holds several entries; their conditions need not be identical. Equal values may be shown once. Read-outs that look alike come from different tables or passages of the source.

Experiments:
[1] = amino acid side chain; cited from earlier work
[2] = Solubility of triamcinolone acetonide; details: suspension, in the buffer at 37° C. when implanted
[3] = Osmolarity of saline and commercial formulations (Table 1B, calculations); assay type: physicochemical; details: Summary of Calculations
Text: The formulation of therapeutic agent injected into therapeutic device 100 may comprise many known formulations of therapeutic agents, and the formulation therapeutic agent comprises an osmolarity suitable for release for an extended time from device 100.
The vitreous humor of the eye comprises an osmolarity of about 290 mOsm to about 320 mOsm. Formulations of therapeutic agent having an osmolarity from about 280 mOsm to about 340 mOsm are substantially isotonic and substantially iso-osmotic with respect to the vitreous humor of the eye. Although the formulations listed in Table 1B are substantially iso-osmotic and isotonic with respect to the vitreous of the eye and suitable for injection into the therapeutic device, the formulation of the therapeutic agent injected into the therapeutic device can be hypertonic (hyper-osmotic) or hypotonic (hypo-osmotic) with respect to the tonicity and osmolarity of the vitreous. […]

[4] = Measured release of Avastin through porous frit structures, Examples 12-13; assay type: physicochemical; details: for RRI (mm): single devices; for determined RRI: reservoir 20 uL
Text: For the analysis of data up to 130 days, the first data point is excluded from the fit because the model assumes the maximum delivery rate occurs at time zero while there is some startup time often associated with measured release profiles. The startup time may be related to the time it takes to displace all of the air in the frit. Use of different techniques to displace the air in the frit may reduce the startup time.

[5] = as above; assay type: physicochemical
[6] = RRI for Avastin of porous frits characterised by gas flow, Example 17C (Table 7); assay type: physicochemical
Text: The flow through the porous structure can be measured with a decay time of the gas pressure, for example with the flow rate across the porous structure with a pressure drop across the porous frit structure, as described herein. The flow rate and RRI can be determined based on the media grade of the material, for example as commercially available media grade material available from Mott Corp. The therapeutic agent can be measured through the porous structure, or a similar test molecule. […] Based on the teachings described herein, a person of ordinary skill in the art can conduct experiments to determine empirically the correspondence of flow rate with a gas to the release rate of the therapeutic agent.

[7] = test system: laser photocoagulation treatment-induced Grade IV choroidal neovascularization (CNV) lesions; details: intravitreal injection at all doses tested, cynomolgus monkeys; Z. Yao et al., ARVO 2009; cited from earlier work
[8] = human eye; cited from earlier work
[9] = Measured release of Lucentis through porous frit structures, Example 15B; assay type: physicochemical; details: 10 mg/mL Lucentis, 30 uL, 37 C
Text: All porous frit structures are 316L SS, Mott Corporation.
The diameter ranged from 0.031″ to 0.038″, and the length ranged from 0.029 to 0.049. The media grade ranged from 0.1 to 0.3, and the RRI ranged from 0.014 to 0.090.
Although some of the measurements were excluded, this exclusion is appropriate and associated with in vitro testing conditions that differ substantially from the in vivo model. Five devices were excluded due to bubble growth (10%), and four were excluded due to receiver volume issues at one timepoint for that device (8%). The latter can be an experimental error associated with the volume of the receiver below the assumed value due to evaporation from inadequately sealed vials or due to pipetting error. In some instances the in vitro experimental test apparatus can be sensitive to bubble formation that may differ substantially from the in vivo model as the living eye can resorb oxygen from the therapeutic devices. Bubbles can form as receiver fluid is heated to 37° C. and gas concentrations are greater than their solubilities at 37° C. To minimize the occurrence of bubble formation, receiver solutions were degassed before insertion of the devices.

[10] = Measured release of ranibizumab 40 and 100 mg/mL from devices with porous titanium frit, device half life 100 days, Example A; assay type: physicochemical; details: for RRI (mm), Mean: 25 uL device, titanium frit about 0.04 in thick, OD about 0.03 in; for 40 mg/mL Rate, Average / 100 mg/mL Rate, Average: devices with 100 day half life, unit not given
Text: No. 2010/0015157, entitled “Antibody Formulations”, the full disclosure of which is incorporated herein by reference.
Devices were fabricated using the following method. A vessel was made from two subassemblies and a porous frit structure as described herein. […] The intended RRI was about 0.02 based on gas flow measurements and manufacturing as described herein. The implantable devices were manufactured in accordance with the teachings as described herein.
Devices were filled with formulation using a 33 G needle (TSK) and a standard tuberculin 1-cc syringe (BD). Excess liquid that had exited the porous sintered frit structure during filling was removed by use of a lab tissue and submerging in phosphate buffered saline (PBS, Sigma) and 0.02% sodium azide as a preservative. Each device was suspended in the center of a 1.5 mL microcentrifuge tube by use of a fixture. The tube was filled with 0.5 mL receiver fluid; i.e., PBS that had been degassed to minimize bubble formation. At selected times, the device was removed from the receiver fluid and placed in a new tube containing fresh receiver fluid. […] For the later time points, the sample concentrations were higher and concentration was determined by UV (Perkin Elmer Lambda 35). Drug release rates were calculated from measured concentration, the volume of the receiver fluid and the duration of the collection interval. Drug release rate profiles were plotted at the average elapsed time for each collection interval. RRI was determined via a least squares fit to the model.
Each formulation was filled into ten devices. Some devices were stopped at 3 and 4 months (n=3 each), leaving four that underwent drug release testing for 180 days.

[11] = Measured release of ranibizumab 40 and 100 mg/mL from a population of devices, Example C; assay type: physicochemical; details: at 15 weeks, 25 uL, RRI 0.02
Procedure: Therapeutic devices having stainless steel porous frit structures and formulations were prepared in accordance with Examples A and B. The devices had volumes of 25 uL and an RRI of 0.02.
Pressure decay tests of the assembled porous frit structures were conducted as described herein.
Eighteen devices were injected with the 100 mg/mL formulation and 18 devices were injected with the 40 mg/mL formulation. However, measurements of some devices were stopped for other assays every 4 months so only 6 devices for each formulation have release data through 180 days. The rate of release was measured for 16 weeks, and the amount release after each 2 week interval determined. […] The data indicates a measured rate of 3.5 and 8.1 ug/day at 15 weeks, for the 40 and 100 mg/mL formulation injections, respectively.

[12] = Measured release of ranibizumab 100 mg/mL from devices with porous titanium frit, device half life 250 days, Example B; assay type: physicochemical; details: for 100 mg/mL Rate, Average: devices with 250 day half life, n = 5
Procedure: The intended RRI was about 0.008 based on gas flow measurements and manufacturing as described herein. The therapeutic device reservoir volume was about 25 uL.
The formulation was filled into five devices and all underwent drug release testing for 180 days.

[13] = test system: size of the lesion / retinal thickness in wet AMD (OCT); assay type: in vivo, human; details: for Treatment Effect Observed?: OCT decrease in size of the lesion
Text: OCT (Optical Coherence Tomography) imaging was used to assess the condition of the region of the macula at the back surface of the treated eye. The OCT technique relies on the measurement of certain properties of light (e.g. echo time, intensity of reflection) that has been directed at the area of study and can measure very small amounts of reflected light. Because these cellular features are essentially transparent it is possible to use OCT methodology to generate three dimensional representations of the area.
The regions of interest were analyzed with a two dimensional representation of the cross section of the retinal wall at one longitudinal scan location of the OCT image. In these “OCT scan” images is it possible to interrogate very local areas of interest more specifically. The OCT scans were carefully selected to directly compare the thickness and anatomical structure of specific sites within a lesion, pre and post treatment, for the purpose of assessing the effect of injected drug including a reduction in sub-retinal fluid.
The OCT images were measured the day after injection and at 2-3 days post injection. […]

[14] = cited from earlier work; for half-life in the vitreous: rabbit and monkey
[15] = Frit #3 (0.038 x 0.029 in), reservoir 37 uL, up to 130 days

N=C(N)NCCC[C@H](N)C(=O)O [L-Arginine]
pKa of side chain [1]: 12.0

N[C@@H](CC(=O)O)C(=O)O [L-Aspartic Acid]
pKa of side chain [1]: 3.8

N[C@@H](CS)C(=O)O [L-Cysteine]
pKa of side chain [1]: 8.28

CC1(C)O[C@@H]2C[C@H]3[C@@H]4CCC5=CC(=O)C=C[C@]5(C)[C@@]4(F)[C@@H](O)C[C@]3(C)[C@]2(C(=O)CO)O1 [triamcinolone acetonide]
solubility [2]: approximately 19 ug/mL

bevacizumab [Avastin]
Osm [3]: 0.182 M
RRI (mm), Mean ([4]; Frit #2 (0.031 x 0.049 in), reservoir 37 uL, up to 130 days): 0.024 mm
RRI (mm), Mean for SS < 2 ([4]; Frit #2, reservoir 37 uL, up to 130 days): 0.014 mm
RRI (mm) [4, 15]: 0.031 mm and 0.030 mm and 0.029 mm and 0.034 mm and 0.044 mm and 0.045 mm
RRI (mm), Mean for SS < 2 ([4]; Frit #3, reservoir 37 uL, up to 130 days): 0.030 mm
determined RRI ([4]; Frit #5 (0.038 x 0.029 in, media grade 0.1 um), 25 mg/mL Avastin, 37 C, FIG. 24A): 0.03
determined RRI ([4]; Frit #6 (0.038 x 0.029 in, media grade 0.2 um), 25 mg/mL Avastin, 37 C, FIG. 23A): 0.05 mm
RRI (mm) ([4]; Table 5A: 16 uL reservoir, 25 mg/mL Avastin, Frit #2 (0.031 x 0.049 in, media grade 0.2 um, 316L SS), 37 C): 0.018 mm and 0.022 mm
RRI (mm) ([4]; Table 5A: 33 uL reservoir, 25 mg/mL Avastin, Frit #2 (0.031 x 0.049 in, media grade 0.2 um, 316L SS), 37 C): 0.015 mm and 0.018 mm
RRI (mm), Mean ([5]; Frit #2 (0.031 x 0.049 in), reservoir 37 uL, up to 45 days): 0.02 mm and 0.020 mm
RRI (mm), Mean for SS < 2 ([5]; Frit #2, reservoir 37 uL, up to 45 days): 0.014 mm
RRI (mm), Mean ([5]; Frit #3 (0.038 x 0.029 in), reservoir 37 uL, up to 45 days): 0.034 mm
RRI (mm), Mean [5, 15]: 0.035 mm
RRI (mm) ([5]; Frit #3 (0.038 x 0.029 in, media grade 0.2 um), 25 mg/mL Avastin, reservoir 37 uL, 37 C, up to 45 days, single devices): 0.027 mm and 0.034 mm and 0.033 mm and 0.044 mm and 0.030 mm and 0.043 mm
RRI (mm), Mean for SS < 2 ([5]; Frit #3, reservoir 37 uL, up to 45 days): 0.030 mm
release rate (RRI) ([5]; Frit #5, media grade 0.1, reservoir 20 uL, to about 90 days, FIG. 24A-1): 0.038 mm
RRI ([5]; Frit #6, reservoir 20 uL, to about 90 days, FIG. 23A-1): 0.053 mm
RRI ([6]; Table 7: media grade 0.1, O.D. 0.038 in, length 0.029 in): 0.014
RRI ([6]; Table 7: media grade 0.2, O.D. 0.031 in, length 0.049 in): 0.019
RRI ([6]; Table 7: media grade 0.2, O.D. 0.038 in, length 0.029 in): 0.034 and 0.033

ranibizumab [Lucentis]
development of Grade IV CNV lesions [7]: completely inhibited
half-life in the vitreous [8]: ~220 h
RRI (mm) ([9]; frit 0.031 x 0.049 in, media grade 0.1 um, 2 replicates): 0.014 mm
RRI (mm) ([9]; frit 0.031 x 0.049 in, media grade 0.2 um, 12 replicates): 0.021 mm
RRI (mm) ([9]; frit 0.038 x 0.029 in, media grade 0.1 um, 5 replicates): 0.039 mm
RRI (mm) ([9]; frit 0.038 x 0.029 in, media grade 0.2 um, 14 replicates): 0.061 mm
RRI (mm) ([9]; frit 0.038 x 0.029 in, media grade 0.3 um, 6 replicates): 0.090 mm
RRI (mm), Mean ([10]; 40 mg/mL formulation): 0.02 mm and 0.024 mm
RRI (mm), Mean ([10]; 100 mg/mL formulation): 0.02 mm and 0.021 mm
40 mg/mL Rate, Average ([10]; Day 90, n = 7): 5.52
100 mg/mL Rate, Average ([10]; Day 90, n = 7): 9.51
40 mg/mL Rate, Average ([10]; Day 180, n = 4): 2.42
100 mg/mL Rate, Average ([10]; Day 180, n = 4): 5.13
Osm [3]: 0.289 M
measured rate of release ([11]; 40 mg/mL formulation): 3.5 µg/day
measured rate of release ([11]; 100 mg/mL formulation): 8.1 µg/day
RRI (mm), Mean ([12]; 100 mg/mL formulation, 25 uL device, titanium frit 0.031 in thick, OD 0.031): 0.008 mm
100 mg/mL Rate, Average ([12]; Day 90): 5.6 µg/day and 5.59 µg/day
100 mg/mL Rate, Average ([12]; Day 180): 4.51 µg/day
MIC for a sustained release device ([13]; minimum inhibitory concentration in vivo in human patients, indicated by the low dose study): ≤ 1 ug per ml
Treatment Effect Observed? ([13]; single patient, lowest dose administered 10 μg intravitreal): Yes
Treatment Effect Observed? ([13]; single patients, lowest dose administered 5 μg intravitreal): Yes
Treatment Effect Observed? ([13]; single patients, lowest dose administered 20 μg intravitreal): Yes
Half-life ([14]; half-life measured for the monkey, parameter of Simulations 1-5 (Table 4A)): 63.1 h
half-life in the vitreous [14]: two to four
half-life in the vitreous ([14]; listed as ranibizumab): approximately 3 days
